# Results as given in the supplement of paper PMC10567573.
# B1: AUP1 (parent)
# chain: FCASTRLPPTPLLLFPEEEATNGR
# B2: ZNF649 (parent)
# chain: LVAHQRYHTGKTPFVCPECGQPCS
# Variants of: B1
# Test: protein stability index of a GFP-peptide fusion (GPS, HEK-293T) (PSI 1-6); higher = more stable
# Conditions: c terminus: a fixed tail appended
# 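Also: lentivirally expressed fusions sorted by FACS into six bins by GFP to DsRed ratio, PSI derived from sequencing read proportions per bin multiplied by bin number.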
row,Variant,protein stability index
1,FCASTRLPPTPLLLFPEEEATVGR,2.16
2,FCASTRLPPTPLLLFPEEEATWGR,2.27
3,FCASTRLPPTPLLLFPEEEATEGR,3.39

# Variants of: B2
# Test: as above
# Conditions: c terminus: a fixed tail appended
row,Variant,protein stability index
1,LVAVQRYHTGKTPFVCPECGQPCS,2.97
2,LVARQRYHTGKTPFVCPECGQPCS,2.77
3,LVASQRYHTGKTPFVCPECGQPCS,2.87
4,LVAQQRYHTGKTPFVCPECGQPCS,3.61
5,LVAMQRYHTGKTPFVCPECGQPCS,2.76
6,LVAEQRYHTGKTPFVCPECGQPCS,3.31
7,LVAYQRYHTGKTPFVCPECGQPCS,2.64
8,LVANQRYHTGKTPFVCPECGQPCS,3.33
9,LVAPQRYHTGKTPFVCPECGQPCS,3.4
10,LVADQRYHTGKTPFVCPECGQPCS,3.98
11,LVAWQRYHTGKTPFVCPECGQPCS,2.72
12,LVACQRYHTGKTPFVCPECGQPCS,4.02
13,LVAAQRYHTGKTPFVCPECGQPCS,3.02
14,LVATQRYHTGKTPFVCPECGQPCS,3.17
15,LVALQRYHTGKTPFVCPECGQPCS,1.81
16,LVAGQRYHTGKTPFVCPECGQPCS,3.42
17,LVAFQRYHTGKTPFVCPECGQPCS,2.76
18,LVAIQRYHTGKTPFVCPECGQPCS,2.26
19,LVAKQRYHTGKTPFVCPECGQPCS,2.49
20,LVRHQRYHTGKTPFVCPECGQPCS,3.14
21,LVGHQRYHTGKTPFVCPECGQPCS,3.68
22,LVLHQRYHTGKTPFVCPECGQPCS,2.69
23,LVIHQRYHTGKTPFVCPECGQPCS,3.32

row,Variant,protein stability index
1,LVTHQRYHTGKTPFVCPECGQPCS,3.47
2,LVVHQRYHTGKTPFVCPECGQPCS,2.46
3,LVYHQRYHTGKTPFVCPECGQPCS,2.38
4,LVSHQRYHTGKTPFVCPECGQPCS,3.58
5,LVDHQRYHTGKTPFVCPECGQPCS,4.3
6,LVKHQRYHTGKTPFVCPECGQPCS,3.41
7,LVQHQRYHTGKTPFVCPECGQPCS,3.68
8,LVHHQRYHTGKTPFVCPECGQPCS,3.59
9,LVPHQRYHTGKTPFVCPECGQPCS,3.24
10,LVWHQRYHTGKTPFVCPECGQPCS,2.57
11,LVNHQRYHTGKTPFVCPECGQPCS,2.71
12,LVFHQRYHTGKTPFVCPECGQPCS,2.23
13,LVMHQRYHTGKTPFVCPECGQPCS,2.71
14,LVEHQRYHTGKTPFVCPECGQPCS,4.14
15,LVCHQRYHTGKTPFVCPECGQPCS,4.11
16,LVAHSRYHTGKTPFVCPECGQPCS,3.14
17,LVAHKRYHTGKTPFVCPECGQPCS,3.03
18,LVAHCRYHTGKTPFVCPECGQPCS,2.86
19,LVAHERYHTGKTPFVCPECGQPCS,4.17
20,LVAHMRYHTGKTPFVCPECGQPCS,2.24
21,LVAHNRYHTGKTPFVCPECGQPCS,3.15
22,LVAHGRYHTGKTPFVCPECGQPCS,2.98
23,LVAHDRYHTGKTPFVCPECGQPCS,3.74

row,Variant,protein stability index
1,LVAHFRYHTGKTPFVCPECGQPCS,1.95
2,LVAHARYHTGKTPFVCPECGQPCS,3.22
3,LVAHPRYHTGKTPFVCPECGQPCS,3.32
4,LVAHRRYHTGKTPFVCPECGQPCS,3.06
5,LVAHLRYHTGKTPFVCPECGQPCS,2.05
6,LVAHIRYHTGKTPFVCPECGQPCS,3.78
7,LVAHHRYHTGKTPFVCPECGQPCS,3.11
8,PVAHQRYHTGKTPFVCPECGQPCS,4.28
9,HVAHQRYHTGKTPFVCPECGQPCS,3.48
10,RVAHQRYHTGKTPFVCPECGQPCS,3.63
11,TVAHQRYHTGKTPFVCPECGQPCS,3.93
12,AVAHQRYHTGKTPFVCPECGQPCS,3.76
13,IVAHQRYHTGKTPFVCPECGQPCS,2.95
14,NVAHQRYHTGKTPFVCPECGQPCS,4.24
15,DVAHQRYHTGKTPFVCPECGQPCS,3.6
16,MVAHQRYHTGKTPFVCPECGQPCS,3.25
17,SVAHQRYHTGKTPFVCPECGQPCS,4.24
18,CVAHQRYHTGKTPFVCPECGQPCS,4.67
19,FVAHQRYHTGKTPFVCPECGQPCS,2.57
20,EVAHQRYHTGKTPFVCPECGQPCS,4.06
21,WVAHQRYHTGKTPFVCPECGQPCS,2.46
22,KVAHQRYHTGKTPFVCPECGQPCS,3.65
23,GVAHQRYHTGKTPFVCPECGQPCS,3.67

row,Variant,protein stability index
1,QVAHQRYHTGKTPFVCPECGQPCS,3.87
2,YVAHQRYHTGKTPFVCPECGQPCS,1.22
3,VVAHQRYHTGKTPFVCPECGQPCS,3.35
4,LQAHQRYHTGKTPFVCPECGQPCS,3.62
5,LAAHQRYHTGKTPFVCPECGQPCS,3.28
6,LFAHQRYHTGKTPFVCPECGQPCS,2.78
7,LCAHQRYHTGKTPFVCPECGQPCS,4.4
8,LHAHQRYHTGKTPFVCPECGQPCS,4.09
9,LYAHQRYHTGKTPFVCPECGQPCS,2.81
10,LNAHQRYHTGKTPFVCPECGQPCS,3.39
11,LGAHQRYHTGKTPFVCPECGQPCS,3.81
12,LEAHQRYHTGKTPFVCPECGQPCS,4.4
13,LLAHQRYHTGKTPFVCPECGQPCS,3.09
14,LRAHQRYHTGKTPFVCPECGQPCS,3.36
15,LWAHQRYHTGKTPFVCPECGQPCS,2.57
16,LSAHQRYHTGKTPFVCPECGQPCS,3.49
17,LPAHQRYHTGKTPFVCPECGQPCS,3.5
18,LKAHQRYHTGKTPFVCPECGQPCS,2.91
19,LDAHQRYHTGKTPFVCPECGQPCS,3.87
20,LIAHQRYHTGKTPFVCPECGQPCS,3.1
21,LTAHQRYHTGKTPFVCPECGQPCS,4.06
22,LMAHQRYHTGKTPFVCPECGQPCS,3.34
